From US20230203471A1, “METHOD AND PLATFORM FOR DISRUPTING INTRACELLULAR MICROTUBULES” (National Tsing Hua University, priority 2021, published 2023)

What was measured:
[1] = target: intracellular microtubules (MTs)
[2] = target: MT-binding domain of ensconsin-cyan fluorescent protein-FKBP-rapamycin binding domain (EMTB-CFP-FRB) (Artificial Sequence); assay: FRET live-cell imaging in co-transfected HeLa cells, 100 nM rapamycin
[3] = target: EMTB-YFP-CIBN (Artificial Sequence); assay: live-cell imaging in co-transfected COS7 cells, local blue light
[4] = tested on: EMTB-YFP-CIBN-labeled MTs in COS7 cells; assay: Blue-light-induced recruitment of Cry2 proteins onto EMTB-YFP-CIBN-labeled MTs and MT disassembly; assay type: cell-based, African green monkey; details: COS7 cells
Protocol: The procedures of photostimulation are as follows. COS7 cells were plated on poly(d-lysine)-coated coverslips and cultured in six-well plates (Thermo Scientific) for 48 hr. Before imaging, cells were incubated with SPY650-tubulin (1000-fold dilution; Spirochrome) at 37° C. for 1 hr. Local photostimulation was carried out with a fluorescence microscope (Nikon) equipped with a digital micromirror device, polygon 400 (MIGHTEX), and a 488-nm light source. Cells were illuminated with the blue light (5 sec on/1 sec off; 1.6 nW/µm^2) for the indicated duration. The mCherry and SPY650-tubulin were simultaneously imaged during photostimulation using Nikon element AR software.
The inventors next tried to use an optogenetic system to trigger MT disassembly in a sub-cellular region of interest during a specific period of time. Cryptochrome 2 (Cry2) (SEQ ID NO:14) and CIBN (N-terminal 170 amino acids of CIB1) (SEQ ID NO:15), two blue light-sensitive dimerizing partners, were used in our MT-manipulating system. Cry2, which was tagged with the red fluorescent protein mCherry (mCh—Cry2), was rapidly translocated onto EMTB—YFP—CIBN-labeled MTs only in regions illuminated with light (T½ = 34.6 ± 7.58 sec) and dissociated from MTs to the cytosol when the light was off (T½ = 28.2 ± 4.88 sec; see FIGS. 6A and 6B).
FIGS. 6A and 6B show using light to disassemble MTs in a reversible and location-specific manner. In FIG. 6A, COS7 cells co-transfected with EMTB—YFP—CIBN and mCh—Cry2 (red) were incubated with SPY650-tubulin (SPY650-tub) to visualize MTs; the cells were illuminated by blue light within a specified region (indicated by the dotted circle) for the indicated time period; scale bar, 10 µm.
The inventors then used light to control spastin-mediated MT disassembly in a spatially and temporally specific manner. dNSpastin3Q tagged with mCh-Cry2 was co-expressed with EMTB—YFP—CIBN in COS7 cells. MTs were labeled with SPY650-tubulin in these experiments.
FIGS. 6C and 6D show using light to disassemble MTs in a reversible and location-specific manner. In FIG. 6C, COS7 cells co-transfected with EMTB-YFP-CIBN and dNSpastin3Q-mCh—Cry2 were incubated with SPY650-tubulin to visualize MTs; the cells were illuminated by blue light as in FIG. 6A; scale bar, 10 µm. […] Data are shown as the mean ± S.E.M.

[5] = target: EMTB-YFP-CIBN (Artificial Sequence); assay: live-cell imaging in co-transfected COS7 cells, after blue light
[6] = tested on: mitotic spindles and intercellular bridges in HeLa cells; assay: Disruption of mitotic spindles and intercellular bridges in synchronized HeLa cells; assay type: cell-based; details: CFP-FRB-MAP4m, rapamycin 100 nM
Protocol: The procedures of cell synchronization are as follows. Plasmid DNA (i.e., DNA construct) transfection was carried out 20-24 hr prior to cell cycle synchronization. For synchronization, HeLa cells were treated with 2 mM thymidine (Sigma) for 16-18 hr to induce arrest at G1/S phase and then were treated with 2.5 ng/ml RO3306 (a selective ATP-competitive inhibitor of CDK1)(Sigma) for 12 hr to induce arrest at G2/M phase. After being washed with warm DMEM, cells were incubated with DMEM and 10% FBS at 37° C., 5% CO2 for 30-60 min to enrich the population of metaphase and telophase cells.
FIGS. 5K to 5N show rapid disruption of mitotic spindles and intercellular bridges. In FIG. 5K, HeLa cells co-transfected with H2B—mCherry (H2B—mCh; a chromosome marker; red), CFP—FRB—MAP4m (a marker of mitotic spindles; blue), and dNSpastin3Q-YFP-FKBP (green) were synchronized in metaphase and treated with rapamycin (100 nM) to induce dNSpastin3Q-YFP-FKBP recruitment to mitotic spindles; scale bar, 10 µm. In FIG. 5L, HeLa cells co-transfected with H2B—mCherry (red), CFP—FRB—MAP4m (intercellular bridges; blue), and dNSpastin3Q-YFP-FKBP (green) were treated with rapamycin (100 nM) to induce dNSpastin3Q-YFP-FKBP recruitment to intercellular bridges; arrows indicate the intercellular bridges; scale bar, 10 µm. […] Data are shown as the mean ± S.E.M. Dotted lines indicate the cell boundaries.

[7] = tested on: ciliary axonemes and primary cilia in NIH3T3 cells; assay: Disruption of primary cilia in serum-starved NIH3T3 cells (live-cell imaging); assay type: cell-based, mouse; details: G0 NIH3T3 cells, CFP-FRB-MAP4m, rapamycin 100 nM
Protocol: The procedures of cell culture and transfection are as follows. African green monkey kidney cell line COS7 (CRL-1651), cervical cancer cell line HeLa (CCL-2), human osteosarcoma cell line U2OS (HTB-96), human embryonic kidney cell line HEK293T (CRL-3216), and mouse embryonic fibroblasts NIH3T3 cells (CRL-1658) were maintained at 37° C., 5% CO2, and 95% humidity in Dulbecco’s modified Eagle’s medium (DMEM) supplemented with 10% fetal bovine serum (FBS), and penicillin and streptomycin (Corning). To induce ciliogenesis, NIH3T3 cells were serum starved for 24 hr. COS7 cells were transfected with plasmid DNAs by using TurboFect transfection reagents (Thermo Fisher). HeLa, U2OS, HEK293T, and NIH3T3 cells were transfected with FuGENE HD (Promega). Transfected cells were incubated for 24-48 hr prior to imaging and other experiments.
The procedures of live-cell imaging are as follows. Live transfected cells cultured on poly(d-lysine)-coated glass coverslips (Hecht Assistent) were treated with either 100 nM rapamycin for rapid induction of protein dimerization and translocation or MT-targeting agents (10 µM nocodazole or 500 µM colchicine) during imaging. Live-cell imaging was conducted on a Nikon T1 inverted fluorescence microscope (Nikon) with a 60× oil objective (Nikon), a Prime camera (Photometrics), and 37° C., 5% CO2 heat stage (Live Cell Instrument). […]

[8] = tested on: centrosomes in HeLa cells; assay: Effect of MT disruption treatment on PACT-labeled centrosomes in HeLa cells; assay type: cell-based; details: MT disruption treatment for 1 hr
Protocol: In FIG. 5O, HeLa cells co-transfected with EMTB—CFP—FRB (blue), dNSpastin3Q-YFP-FKBP (green), and PACT-mCh (a centrosomal marker; red) were treated with rapamycin (100 nM) and imaged; dotted lines indicate the cell boundary; insets show higher-magnification images of the centrosome regions; scale bar, 10 µm. […] Data are shown as the mean ± S.E.M.

spastin = target: T1, spastin (Mus musculus, UniProt Q9QYY8, K308Q/K309Q/K310Q); assay: Reversal of MT disruption by spastin inhibition and MT regrowth in HeLa cells; assay type: cell-based; details: regrowth in cytosol (acentrosome) after spastazoline
T1 construct: expressed in transfected cells; host or cells: HeLa (CCL-2)
T1 sequence (Q9QYY8 with tags, fused parts or gaps K308Q/K309Q/K310Q): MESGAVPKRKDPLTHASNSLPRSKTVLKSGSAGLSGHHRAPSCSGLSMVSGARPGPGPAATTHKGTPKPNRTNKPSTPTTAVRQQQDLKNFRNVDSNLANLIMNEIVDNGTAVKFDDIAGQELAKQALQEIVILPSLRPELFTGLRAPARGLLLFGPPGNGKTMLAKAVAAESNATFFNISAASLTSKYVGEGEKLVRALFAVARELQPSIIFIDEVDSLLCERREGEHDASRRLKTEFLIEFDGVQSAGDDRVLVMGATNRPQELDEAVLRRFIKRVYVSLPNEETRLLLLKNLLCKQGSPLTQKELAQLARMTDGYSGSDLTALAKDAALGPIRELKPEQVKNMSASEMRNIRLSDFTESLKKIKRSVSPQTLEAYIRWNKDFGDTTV
Protocol: FIGS. 2S to 2U show inhibition of spastin activity reverses MT disruption. In FIG. 2S, HeLa cells co-transfected with EMTB—CFP—FRB (black) and dNSpastin3Q-YFP-FKBP (green) were pre-treated with rapamycin for 28 min to induce acute MT disassembly; spastazoline (10 µM), a spastin inhibitor, was then added to the cultures to halt the MT disruption system; arrows indicate the centrosome-derived MTs; scale bar, 10 µm. […] Data (red) are shown as the mean ± SD. A Student’s t-test was performed to generate the indicated p-value.
Intriguingly, nascent MTs from the fragments derived from dNspastin3Q-mediated cleavage assembled at a polymerization rate of 0.92 ± 0.04 µm/sec, which was slightly slower than the regrowth rate of 1.17 ± 0.07 µm/sec for MTs from centrosomes (see FIG. 2U). […] In particular, microtubule filaments are composed of microtubule molecules. If they are only disassembled into microtubule molecules and the raw materials are still there, they would have the opportunity to quickly assemble them back. But if the microtubule molecules are degraded and the raw materials are gone, they can’t be quickly reassembled. In summary, rapid recruitment of dNSpastin3Q-YFP-FKBP onto MTs efficiently triggered MT disassembly in living cells upon dimerization induction.

Sequence of EMTB-YFP-CIBN (Artificial Sequence) (chain, as listed by the source): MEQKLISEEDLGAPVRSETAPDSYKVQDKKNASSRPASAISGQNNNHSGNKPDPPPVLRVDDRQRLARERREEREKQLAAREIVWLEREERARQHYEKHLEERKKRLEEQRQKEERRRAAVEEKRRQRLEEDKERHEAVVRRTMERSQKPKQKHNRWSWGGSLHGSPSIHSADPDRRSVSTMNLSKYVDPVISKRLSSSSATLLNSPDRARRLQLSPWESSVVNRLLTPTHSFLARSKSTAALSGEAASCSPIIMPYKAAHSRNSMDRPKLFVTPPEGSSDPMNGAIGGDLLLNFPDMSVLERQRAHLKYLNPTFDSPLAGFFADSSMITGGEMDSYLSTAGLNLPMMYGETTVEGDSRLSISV
Sequence of MT-binding domain of ensconsin-cyan fluorescent protein-FKBP-rapamycin binding domain (EMTB-CFP-FRB) (Artificial Sequence) (chain, as listed by the source): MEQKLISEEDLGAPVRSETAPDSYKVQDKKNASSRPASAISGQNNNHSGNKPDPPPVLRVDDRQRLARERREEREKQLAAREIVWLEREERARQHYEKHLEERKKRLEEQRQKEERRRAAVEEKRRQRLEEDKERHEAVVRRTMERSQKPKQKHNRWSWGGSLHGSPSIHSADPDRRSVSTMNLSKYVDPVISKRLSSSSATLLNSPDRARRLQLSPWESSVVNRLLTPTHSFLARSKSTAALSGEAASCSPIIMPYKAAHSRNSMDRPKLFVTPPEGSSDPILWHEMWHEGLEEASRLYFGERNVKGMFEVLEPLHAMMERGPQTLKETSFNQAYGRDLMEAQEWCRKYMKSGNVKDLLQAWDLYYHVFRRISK

## dNSpastin-YFP-FKBP-C2 domain of Lactadherin (dNSpastin-YFP-FKBP-C2Lact) (enzyme)
[1]
  half time of MT disruption (MT filament area): 53.1 min
[2]
  T½ of translocation: 55.4 s

B1: Cry2 tagged with the red fluorescent protein mCherry (mCh-Cry2) (protein)
chain: MKMDKKTIVWFRRDLRIEDNPALAAAAHEGSVFPVFIWCPEEEGQFYPGRASRWWMKQSLAHLSQSLKALGSDLTLIKTHNTISAILDCIRVTGATKVVFNHLYDPVSLVRDHTVKEKLVERGISVQSYNGDLLYEPWEIYCEKGKPFTSFNSYWKKCLDMSIESVMLPPPWRLMPITAAAEAIWACSIEELGLENEAEKPSNALLTRAWSPGWSNADKLLNEFIEKQLIDYAKNSKKVVGNSTSLLSPYLHFGEISVRHVFQCARMKQIIWARDKNSEGEESADLFLRGIGLREYSRYICFNFPFTHEQSLLSHLRFFPWDADVDKFKAWRQGRTGYPLVDAGMRELRATGWMHNRIRVIVSSFAVKFLLLPWKWGMKYFWDTLLDADLECDILGWQYISGSIPDGHELDRLDNPALQGAKYDPEGEYIRQWLPELARLPTEWIHHPWDAPLTVLKASGVELGTNYAKPIVDIDTARELLAKAISRTREAQIMIGAA
[3]
  T½ of translocation onto MTs under light: 34.6 s
[4]; blue light on
  T½ of translocation onto EMTB-YFP-CIBN-labeled MTs in illuminated regions: 34.6 ± 7.58 s
[4]; light off
  T½ of dissociation from MTs to the cytosol: 28.2 ± 4.88 s
[4]; local blue light illumination, SPY650-tubulin
  light-induced MT disassembly: did not lead to MT disassembly
[5]
  T½ of dissociation from MTs when the light was off: 28.2 s

B2: dNSpastin3Q: truncated spastin with three residues mutated to three glutamines, SEQ ID NO:6; used as tagged fusions (protein)
chain: MESGAVPKRKDPLTHASNSLPRSKTVLKSGSAGLSGHHRAPSCSGLSMVSGARPGPGPAATTHKGTPKPNRTNKPSTPTTAVRQQQDLKNFRNVDSNLANLIMNEIVDNGTAVKFDDIAGQELAKQALQEIVILPSLRPELFTGLRAPARGLLLFGPPGNGKTMLAKAVAAESNATFFNISAASLTSKYVGEGEKLVRALFAVARELQPSIIFIDEVDSLLCERREGEHDASRRLKTEFLIEFDGVQSAGDDRVLVMGATNRPQELDEAVLRRFIKRVYVSLPNEETRLLLLKNLLCKQGSPLTQKELAQLARMTDGYSGSDLTALAKDAALGPIRELKPEQVKNMSASEMRNIRLSDFTESLKKIKRSVSPQTLEAYIRWNKDFGDTTV
modifications: dNSpastin3Q
notes: used as tagged fusions
[6]
  disruption of mitotic spindles and intercellular bridges: quickly disrupted these MT-based structures
[7]
  time to disassembly of axonemes and primary cilia: ≤ 15 min
[8]
  disruption of centrosomes: did not disrupt centrosomes
spastin
  polymerization rate of nascent MTs from fragments derived from cleavage: 0.92 ± 0.04 µm/sec
